These results are taken from US20070154905A1 (YEDA RESEARCH AND DEVELOPMENT, published 2007).

Sequences and labels used below:
B2: MACHβ1 (ORF-B of MACH) (other)
chain: MDFSRNLYDIGEQLDSEDLASLKFLSLDYIPQRKQEPIKDALMLFQRLQEKRMLEESNLSFLKELLFRINRLDLLITYLNTRKEEMERELQTPGRAQISAYRVMLYQISEEVSRSELRSFKFLLQEEISKCKLDDDMNLLDIFIEMEKRVILGEGKLDILKRVCAQINKSLLKIINDYEEFSKERSSSLEGSPDEFSNDFGQSLPNEKQTSGILSDHQQSQFCKSTGESAQTSQH
notes: Gal4 fusion in two-hybrid tests; also called MACH B; MACH ORF-B
B3: MACHα1 mutant in which the catalytic cysteine Cys360 is replaced by Ser (enzyme)
chain: MDFSRNLYDIGEQLDSEDLASLKFLSLDYIPQRKQEPIKDALMLFQRLQEKRMLEESNLSFLKELLFRINRLDLLITYLNTRKEEMERELQTPGRAQISAYRVMLYQISEEVSRSELRSFKFLLQEEISKCKLDDDMNLLDIFIEMEKRVILGEGKLDILKRVCAQINKSLLKIINDYEEFSKERSSSLEGSPDEFSNGEELCGVMTISDSPREQDSESQTLDKVYQMKSKPRGYCLIINNHNFAKAREKVPKLHSIRDRNGTHLDAGALTTTFEELHFEIKPHDDCTVEQIYEILKIYQLMDHSNMDCFICCILSHGDKGIIYGTDGQEAPIYELTSQFTGLKCPSLAGKPKVFFIQASQGDNYQKGIPVETDSEEQPYLEMDLSSPQTRYIPDEADFLLGMATVNNCVSYRNPAEGTWYIQSLCQSLRERCPRGDDILTILTEVNYEVSNKDDKKNMGKQMPQPTFTLRKKLVFPSD
notes: Gal4 fusion in two-hybrid tests; also called MACHα1 (C360S); MACHα (C360S)
B4: intracellular domain of human p55 TNF receptor (residues 206-426) (receptor, UniProt P19438 235-455, looked up)
chain: RYQRWKSKLYSIVCGKSTPEKEGELEGTTTKPLAPNPSFSPTPGFTPTLGFSPVPSSTFTSSSTYTPGDCPNFAAPRREVAPPYQGADPILATALASDPIPNPLQKWEDSAHKPQSLDTDDPATLYAVVENVPPLRWKEFVRRLGLSDHEIDRLELQNGRCLREAQYSMLATWRRRTPRREATLELLGRVLRDMDLLGCLEDIEEALCGPAALPPAPSLLR
notes: range 206-426; Gal4 fusion in two-hybrid tests; also called p55-IC; p55 IC
B6: MORT-1 protein (full-length) (other)
chain: VNQAPECRFGGGILGPLGKRRDLARASEPRTEGARRAGPQPRPLADPAMDPFLVLLHSVSSSLSSSELTELKFLCLGRVVKRKLERVQSGLDLFSMLLEQNDLEPGHTELLRELLASLRRHDLLRRVDDFEAGAAAGAAPGEEDLCAAFNVICDNVGKDWRRLARQLKVSDTKIDSIEDRYPRNLTERVRESLRIWKNTEKENATVAHLVGALRSCQMNLVADLVQEVQQARDLQNRSGAMSPMSWNSDASTSEAS
notes: Full-length construct; also called HF1; FADD

Data set [1] concerns the target B6. Briefly: yeast two-hybrid, β-galactosidase filter assay. As to the method: (§1) The yeast two-hybrid test was further applied to evaluate the specificity of binding of MACH to MORT-1, in particular, to define the region in MORT-1 to which MACH binds, as well as to determine which of the MACH ORFs interacts with MORT-1, the procedures being as set forth herein above in Examples 1 and 2. Briefly, various MORT-1 and MACH constructs were prepared for testing the interaction of the proteins encoded by the Gal4 DNA-binding domain and activation domain constructs within transfected SFY526 yeast cells as assessed by the β-galactosidase expression filter assay. The DNA-binding domain constructs were prepared in pGBT9 vectors and the activation domain constructs were prepared in pGAD-GM vectors. For the activation domain constructs, the full-length MACH cDNA was used (MACH), as was a construct encoding only the ORF-B (MACH B) region. Control activation domain constructs were those containing the full-length MORT-1 coding sequence (MORT 1, positive control) and those having no inserts, i.e., “empty” vectors (pGAD-GM). […] Control DNA-binding domain constructs, which were constructed to determine also the specificity of the MACH binding, included constructs encoding lamin (Lamin), residues 287-461 of the intracellular domain of the human p75 TNF-R (human p75 IC), cyclic D (cycD), SNF1, residues 206-426 of the intracellular domain of the human p55 TNF-R (human p55 IC), the ‘death domain’ region of the intracellular domain of the human Fas-R (human Fas DD), residues 216-277 of the intracellular domain of the human CD40 (human CD40 IC), vectors without insert or “empty” pGBT9 vectors (pGBT9, negative control), and a construct encoding the ORF-B region of MACH (MACH B). In the assay, the development of color was determined, where the greater the color development, the greater the interaction between the constructs encoded by the DNA-binding domain and activation domain; Color development was depicted by symbols, where “+++” and “+” indicate the development of a strong color within 30 and 90 min. of the assay, respectively, and “−−−” indicates the lack of development of color within 24 hrs. of the assay. In cases where interactions were not tested, no symbol was indicated.

In data set [2] the target is T1, MACHα1 (human, UniProt Q14790 1-479).
T1 construct: Gal4 fusion in two-hybrid tests; also called wild-type MACHα1
Briefly: yeast two-hybrid. As to the method: (§2) In FIG. 5, there is shown the results of the interaction of MORT-1 and MACH within transfected yeast cells. Briefly, MORT-1 and MACHβ1 and their deletion constructs, as well as MACHα1, a MACHα1 mutant in which the catalytic cysteine Cys₃₆₀ is replaced by Ser (MACHα1 (C360S)) and the intracellular domain of human FAS-R (Fas-IC), were expressed within transfected SFY526 yeast in Gal4 DNA binding domain and activation domain constructs (pGBT9 and pGAD-GH). Their interaction was assessed by a β-galactosidase expression filter assay as described in Boldin et al (1995b). The results are presented in terms of the time required for the development of strong color. […] None of the inserts examined interacted with a number of tested negative controls, including the intracellular domains of human p55 TNF receptor, p75 TNF receptor and CD40, and lamin, cyclin D and ‘empty’ Gal4 vectors. MACHβ1 was cloned by two hybrid screening of a Gal4 AD-tagged human B cell library (Durfee et al, 1993) for proteins that bind to MORT-1, using the HF7c Yeast reporter strain. Except where otherwise indicated, all experimental procedures for the findings presented are as described above (see also Boldin et al, 1995). […] MACHβ1 also self-associated in the transfected yeast. […] Expression of MACHβ1 molecules in mammalian cells yielded a 34 kDa protein that bound to MORT-1 molecules co-expressed with it. It was also able to bind to a GST-MORT-1 fusion protein in vitro.

Data set [3] deals with B3. Briefly: yeast two-hybrid. As to the method: as §2
The target in data set [4] is B4. In words: yeast two-hybrid, β-gal filter assay (FIG. 5).
Data set [5] concerns the molecule itself. In words: yeast two-hybrid, β-galactosidase filter assay. As to the method:
as §1

Data set [6] deals with the molecule itself. In words: yeast two-hybrid. As to the method: as §2
In data set [7] the target is T1, MACHα1. Briefly: yeast two-hybrid, β-gal filter assay (FIG. 5).
Data set [8] addresses B3. In words: yeast two-hybrid, β-gal filter assay (FIG. 5).
Data set [9] deals with the molecule itself. Briefly: yeast two-hybrid, β-galactosidase test (FIG. 1).
Data set [10] addresses T2, MORT-1 fragment, amino acids 130-245 (C-terminal part with the death domain homology region) (human, UniProt Q13158 82-197).
T2 construct: Gal4 fusion in two-hybrid tests; expressed untagged in HeLa cells for the cytotoxicity test; also called MORT-1 DD; MORT-1 dd
T2 sequence: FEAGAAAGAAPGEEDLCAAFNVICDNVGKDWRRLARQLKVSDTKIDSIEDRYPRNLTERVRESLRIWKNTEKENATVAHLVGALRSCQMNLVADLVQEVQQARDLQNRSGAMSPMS
In words: yeast two-hybrid, β-galactosidase test (FIG. 1).

In data set [11] the target is T3, mouse Fas-IC with replacement mutation I225N (mouse, UniProt P25446 187-327).
T3 construct: domain: intracellular domain; The text calls the change 'Ile to Leu' but labels it I225N; also called lpr^eg mutation
T3 sequence (looked up): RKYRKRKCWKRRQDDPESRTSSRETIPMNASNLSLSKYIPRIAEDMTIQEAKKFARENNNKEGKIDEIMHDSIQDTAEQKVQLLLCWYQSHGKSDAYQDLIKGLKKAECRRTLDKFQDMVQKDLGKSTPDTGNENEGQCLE
Briefly: yeast two-hybrid, β-galactosidase test (FIG. 1).

For data set [12], the target named is T4, mouse Fas-IC with replacement mutation I225A (mouse, UniProt P25446 187-327).
T4 construct: domain: intracellular domain
T4 sequence (looked up): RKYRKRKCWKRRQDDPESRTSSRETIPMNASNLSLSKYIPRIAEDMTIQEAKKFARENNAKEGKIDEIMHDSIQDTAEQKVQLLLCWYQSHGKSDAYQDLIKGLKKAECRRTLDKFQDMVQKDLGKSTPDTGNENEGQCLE
Briefly: yeast two-hybrid, β-galactosidase test (FIG. 1).

For data set [13], the target named is B4. Briefly: yeast two-hybrid, β-galactosidase test (FIG. 1).
Data set [14] has as its target B2. Briefly: yeast two-hybrid, β-galactosidase filter assay. On the procedure: as §1
Data set [15] deals with T5, 'empty' Gal4 DNA-binding-domain vector pGBT9 (UniProt P04386 1-147).
T5 construct: Negative control
Briefly: yeast two-hybrid, β-galactosidase test (FIG. 1); empty pGBT9 is named as a negative control in paragraph 206.

T5 sequence (P04386 1-147 limits assumed): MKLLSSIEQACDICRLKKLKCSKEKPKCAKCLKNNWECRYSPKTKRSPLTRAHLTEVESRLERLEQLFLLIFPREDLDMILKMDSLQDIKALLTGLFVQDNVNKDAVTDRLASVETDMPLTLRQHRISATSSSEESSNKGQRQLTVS

B1: MACH (construct with the full-length MACH cDNA) (other)
chain: MDFSRNLYDIGEQLDSEDLASLKFLSLDYIPQRKQEPIKDALMLFQRLQEKRMLEESNLSFLKELLFRINRLDLLITYLNTRKEEMERELQTPGRAQISAYRVMLYQISEEVSRSELRSFKFLLQEEISKCKLDDDMNLLDIFIEMEKRVILGEGKLDILKRVCAQINKSLLKIINDYEEFSKERSSSLEGSPDEFSNDFGQSLPNEKQTSGILSDHQQSQFCKSTGESAQTSQH
notes: also called MORT-2
As for B1, in data set [1], the “time to development of strong color (beta-galactosidase filter assay, yeast two-hybrid)” value (“time to development of strong color” below) was at most 30 min.

As for B2, the binding result in [2] is reported as “binds”; in data set [3], “binds”; in data set [4], “no binding”. The entries for the “time to development of strong color” value in data set [1] and in data set [5] were at most 30 min and 30 to 90 min, respectively.

B3: the binding result in data set [6] is “binds”.

With B4, the binding result in data set [7] and in data set [8] was “no binding” throughout.

B5: MORT-1 fragment, amino acids 1-117 (N-terminal part) (other)
chain: VNQAPECRFGGGILGPLGKRRDLARASEPRTEGARRAGPQPRPLADPAMDPFLVLLHSVSSSLSSSELTELKFLCLGRVVKRKLERVQSGLDLFSMLLEQNDLEPGHTELLRELLAS
notes: Gal4 fusion in two-hybrid tests; also called MORT-1 head; MORT 'head'
Take B5: the binding result in data set [9] is “no binding”.

As to B6, the binding result in [10], in [11], in data set [12], in [13] and in data set [15] was “no binding” each time. Moreover, the “time to development of strong color” value in [14] was 30 to 90 min; in data set [5], at most 30 min.
